The subject of test [1] is OVCAR3 human ovarian cancer cells. Put plainly: OVCAR3 cell line-derived subcutaneous xenograft. It is filed as in vivo, Athymic Nude mouse. The following applies: 20 mg/kg intraperitoneally once per week for three weeks. Here is the method: An Athymic Nude mouse subcutaneous xenograft mouse model was generated with OVCAR3 human ovarian cancer cells. Animals were treated with humanized anti-STn ADCs (1 mg/kg, 2.5 mg/kg, 5 mg/kg), an isotype ADC (1 mg/kg, 5 mg/kg), Paclitaxel (20 mg/kg) or vehicle alone. ADCs were administrated intravenously once per week for four weeks. Paclitaxel was administrated intraperitoneally once per week for three weeks. […] At the end of the study, tumor tissues were collected and analyzed using immunohistochemistry for expression of STn.

A further test relates to MDA-MB-231-STn cells. Put plainly: Flow cytometry-based binding analysis. The following applies: 0 to 300 nM, read-out: MDA-MB-231-STn cell binding [EC50 (nM)]. Here is the method: Humanized IgG1 antibodies, prepared as described above, were subjected to characterization analysis including flow cytometry-based binding analysis with MDA-MB-231-STn cells; binding analysis by BSM ELISA; and glycan array analysis.
In flow cytometry-based binding studies, antibodies were screened over a concentration range of 0 to 300 nM, comparing binding to MDA-MB-231 cells with or without transfection-induced STn expression. Binding was determined using an anti-human APC conjugated secondary antibody and only live cells were considered (based on propidium iodide negative gating). 5,000 events were collected per sample on average. Data were analyzed using FlowJo software (Asland, Oreg.) and resulting APC means and % APC were obtained. […] Human isotype IgG1 antibody was used as an isotype negative control. Epidermal growth factor receptor (LA22, EMD Millipore, Billerica, Mass.) was used as a positive control.

Test [2] deals with bovine submaxillary mucin (BSM). Put plainly: BSM ELISA, periodate-sensitive STn binding. The method, then:
For BSM ELISA analysis, antibodies were screened over a concentration range of 0 to 100 nM on bovine submaxillary mucin (BSM) coated wells. A subset of wells were treated with mild periodate solution before antibody introduction to remove the side chain on terminal sialic acid residues (destroying the STn antigen). Optical densities of periodate and non-periodate-treated wells were determined and log transformed then fit to a nonlinear regression model to obtain a dose response curve. Optical density values obtained from periodate-treated wells were subtracted from non-periodate treated wells to obtain a periodate-sensitive STn binding curve and corresponding EC50 values.
In general terms: In an ELISA, binding on a coated surface is turned into a signal by an enzyme label.

The test system of test [3] is array glycans (AcSTn, GcSTn, Tn and others). Put plainly: Glycan array analysis. More on the design: key: Group 1: capable of binding AcSTn and GcSTn, if they bind to glycans 5, 6, 23 and 24; Group 2: capable of binding STn as well as some related structures that include an O-linkage to serine or threonine, if they bind to glycans 5, 6, 23, 24, 27 and 31; Group 3: capable of binding STn, but may also bind a broader set of related structures) if they bind glycans 5, 6, 23, 24, 17, 3, 19, 37, 27 and 31; Group 4: capable of binding to both AcSTn and GcSTn as well as the un-sialylated Tn antigen (therefore having broader specificity) if they bind to glycans 5, 6, 23, 24 and 47. It is filed as binding. The method, then:
Optimized glycan arrays are utilized to test antibody affinity and specificity for multiple glycans in a single experiment. Glycan arrays include 71 chemically synthesized and well-defined glycans, most of which are Neu5Ac and Neu5Gc glycan pairs.
300 ml of epoxy blocking buffer is prepared by combining 15 ml of 2 M Tris buffer (pH 8) with 0.9 ml of 16.6 M ethanolamine and 284.1 ml of distilled water. The solution is brought to a final pH of 9.0 with HCl. The solution is filtered using a […] nitrocellulose membrane. The epoxy buffer solution as well as 1 L of distilled water are pre-warmed to 50° C. Glass slides are arranged in a slide holder and quickly submerged in a staining tub with the warmed epoxy blocking buffer. Slides are incubated in the epoxy blocking buffer for 1 hour at 50° C. with periodic shaking to deactivate epoxy binding sites. Next, slides are rinsed and blocked with PBS with 1% OVA at 25° C. for one hour. Serum samples with polyclonal antibodies (1:1000) or purified monoclonal antibodies (1 ug/mL), are diluted in PBS with 1% OVA and added to the glycan array for one hour at 25° C. After extensive washing, binding of antibodies are detected by incubating glycan microarray slides with Cy3-conjugated anti-mouse IgG (Jackson Immunoresearch, West Grove, Pa.) for one hour. Slides are then washed extensively, dried and scanned with a Genepix 4000B scanner (Laser at 100%; gain at 350; 10 μm pixels). Raw data from scanned images are extracted using the Genepix software and analysis of raw data is carried out.
Based on array analysis, antibodies are classified according to array glycan binding profile. Antibodies are classified as “Group 1” antibodies, capable of binding AcSTn and GcSTn, if they bind to glycans 5, 6, 23 and 24. Such antibodies are referred to as Pan-STn antibodies due to their ability to associate with a wider range of STn structures and the portion of STn indicated by the largest ellipse in FIG. 1A. […]

In test [4] the test system is MDA-MB-231 cells transfected for enhanced expression of STn (STn positive cells). Put plainly: ADC cytotoxicity assay ([…]-GLO). It is filed as cell-based. The following applies: MMAE-conjugated ADC versions; 72 hours; kill of STn positive cells. Here is the method: MMAE-conjugated ADC versions of hSIA101, hSIA102, and hSIA103 were assessed in an ADC cytotoxicity assay using MDA-MB-231 cells (parental or transfected for enhanced expression of STn). Parental cells were grown in Eagle's Minimum Essential Medium (EMEM) supplemented with 10% FBS, lx Pen/Strep and 45 μg/mL gentamycin. STn positive cells were grown in the same media except with the addition of 1 mg/mL G418 for antibiotic selection. Cells were seeded separately (4,000 cells/well for parental cells or 2,000/well for STn positive cells) in 96-well plates using proper media described above. Cells were grown overnight. After 16-20 hours, cells were treated with varying concentrations of test antibodies in triplicate (50 nM to 0.012 nM) for 72 hours. Then, cells were analyzed using an ADC […]-GLO® luminescent cell viability assay kit (Promega, Madison, Wis.) to determine the amount of ATP present, an indicator of metabolically active cells. The assay uses a single reagent that is added directly to the cultured cells in serum-supplemented medium. The reagent lyses the cells and generates a luminescent signal proportional to the amount of ATP present. Luminescent signals were analyzed and used to calculate the half-maximal inhibitory concentration (IC50) values for each antibody used based on the concentration required to kill STn positive cells at half-maximal levels (see Table 9).

Test [5] concerns Primary patient CRC samples. Put plainly: STn expression in primary patient CRC samples by flow cytometry. It is filed as cell-based. The following applies: % of viable CD45−/CD34− population. From the text:
Primary patient CRC samples were probed by flow cytometry with hSIA101 and two commercial antibodies B72.3 and CC49. All 10 samples tested were STn positive. In the table, % STn is expressed as % of viable CD45−/CD34− population. STn expression was often more robustly identified with hSIA101 than the commercial antibodies.
(Flow cytometry measures light scatter and fluorescence of single cells or particles in a stream.)

Turning to `CC(=O)O[C@H]1C(=O)[C@@]2(C)[C@H]([C@H](OC(=O)c3ccccc3)[C@]3(O)C[C@H](OC(=O)[C@H](O)[C@@H](NC(=O)c4ccccc4)c4ccccc4)C(C)=C1C3(C)C)[C@]1(OC(C)=O)CO[C@@H]1C[C@@H]2O` [Paclitaxel], the Mean tumor volume in test [1] (Day 1) was determined as 161.2 mm^3; in test [1] (Day 4), 210.0 mm^3; in test [1] (Day 9) it was 370.0 mm^3; in test [1] (Day 12) it was 482.3 mm^3; in test [1] (Day 15) it was 620.4 mm^3; in test [1] (Day 18) it was 767.4 mm^3. Besides, the Mean tumor volume in test [1] (Day 23) is 971.6 mm^3; in test [1] (Day 26), 1133.0 mm^3; in test [1] (Day 30), 1277.8 mm^3; in test [1] (Day 31), 1385.2 mm^3.

B1: hSIA103 (antibody, V domains shown)
VH: QVQLVQSGAEVKKPGASVKVSCKASGYTFTDHAIHWVRQAPGQGLEWMGYISPGNGDIKYNEKFKDRVTMTADKSSSTAYMQLRSLRSDDTAVYFCKRSLLALDYWGQGTLVTVSS
VL: DIQMTQSPSSLSASVGDRVTITCKASQDVGTNIAWYQQKPGKAPKVLIYSASTRHTGVPSRFSGSGSGTDFTLTISSLQPEDFATYFCQQYSSFPLTFGQGTKVEIK
Turning to B1, the EC50 in the test with MDA-MB-231-STn cells came out at 0.3 nM; in test [2] (periodate-sensitive STn binding curve, 0 to 100 nM) it was 1.8 nM. For the same molecule, in test [3], the “Array glycan binding profile” value is “Group 1”. Further, the IC50 in test [4] was found to be 1.3 nM.

B2: B72.3: commercial anti-STn antibody (antibody, chains of the INN, looked up, V domains shown)
VH: QVQLQQSDAELVKPGASVKISCKASGYTFTDHAIHWAKQKPEQGLEWIGYISPGNDDIKYNEKFKGKATLTADKSSSTAYMQLNSLTSEDSAVYFCKRSYYGHWGQGTTLTVSS
VL: DIQMTQSPASLSVSVGETVTITCRASENIYSNLAWYQQKQGKSPQLLVYAATNLADGVPSRFSGSGSGTQYSLKINSLQSEDFGSYYCQHFWGTPYTFGGGTRLEIK
As to B2, the “% STn+” value in test [5] (Sample 160093-2, Colon) was 18.9%; in test [5] (Sample 160101-2, Colon), 5.8%; in test [5] (Sample 160102-2, Colon), 14.7%; in test [5] (Sample 160104-2, Colon Met to Liver) it was 46.6%; in test [5] (Sample 160115-2, Colon) it was 13%; in test [5] (Sample 160127-2, Colon), 14.4%. In addition, the “% STn+” value in test [5] (Sample 160149-1, Colon) came out at 10.5%; in test [5] (Sample 160151-1, Colon), 6.8%; in test [5] (Sample 169068-1, Colon), 7.4%; in test [5] (Sample 1601666, Colon) it was 17.3%.

B3: hSIA102 (antibody, V domains shown)
VH: QVQLVQSGAEVKKPGASVKISCKASGYTFTDHAIHWVRQAPGQGLEWIGYFSPGNDDIKYNEKFKVRATLTADKSSSTAYMELRSLRSDDTAVYFCKRSYYGDWGQGTLVTVSS
VL: DIQMTQSPSSLSASVGDRVTITCRASENIYSHLAWYQQKPGKAPKLLVYGATNLASGVPSRFSGSGSGTQFTLTISSLQPEDFATYYCQHFWGAPFTFGQGTKVEIK
In the case of B3, the 50% effective concentration (EC50) with MDA-MB-231-STn cells amounted to 0.1 nM. In addition, the “periodate sensitivity of binding in ELISA assays” value in test [2] is given as “not periodate sensitive”. In addition, in test [3], the “Array glycan binding profile” value is recorded as “Group 4”. The 50% inhibitory concentration (IC50) in test [4] stood at 2.6 nM.

The term EC50 denotes the midpoint of the concentration-response curve. For orientation: IC50 means the concentration needed to halve the response being measured.

For the origin of these results see patent US20230001007A1, “Glycan-Interacting Compounds and Methods of Use” (Seagen Inc., priority 2017, published 2023).
